Experimental data: patent US20160193294A1 (UNIVERSITY OF QUEENSLAND, published 2016)

Tests used:
[1] = target: T1, recombinant protein made of the entire extracellular domain of mouse P-selectin fused to the Fc fragment of … (mouse; human, UniProt Q01102 42-709); experiment: cell adhesion assay: calcein-labelled cells of wild-type and knock-out mice on wells coated with the fusion protein
T1 construct: extracellular domain; Bought from R&D Systems and adsorbed to polystyrene wells at 3 ug/ml; also called muPsel-IgG1Fc; muP-selectin-IgG1Fc; not shown: Fc fragment of human IgG1
T1 sequence (looked up): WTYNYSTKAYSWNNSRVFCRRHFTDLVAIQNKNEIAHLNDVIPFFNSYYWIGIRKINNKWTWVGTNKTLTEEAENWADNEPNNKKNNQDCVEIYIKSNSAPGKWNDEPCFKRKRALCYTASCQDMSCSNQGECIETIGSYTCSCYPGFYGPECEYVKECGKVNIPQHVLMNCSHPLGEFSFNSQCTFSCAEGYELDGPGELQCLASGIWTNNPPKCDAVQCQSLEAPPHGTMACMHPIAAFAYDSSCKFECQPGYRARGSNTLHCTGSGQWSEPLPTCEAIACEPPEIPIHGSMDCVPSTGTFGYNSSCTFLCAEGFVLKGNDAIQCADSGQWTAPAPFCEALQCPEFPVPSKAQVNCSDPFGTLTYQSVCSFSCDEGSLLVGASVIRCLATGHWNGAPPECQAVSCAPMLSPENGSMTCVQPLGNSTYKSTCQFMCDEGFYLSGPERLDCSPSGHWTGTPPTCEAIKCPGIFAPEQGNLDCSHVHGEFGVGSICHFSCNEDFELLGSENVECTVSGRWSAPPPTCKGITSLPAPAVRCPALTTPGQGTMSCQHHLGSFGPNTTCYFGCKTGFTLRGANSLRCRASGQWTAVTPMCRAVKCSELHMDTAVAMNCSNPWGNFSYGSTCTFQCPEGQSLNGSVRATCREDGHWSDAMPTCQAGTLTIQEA
Protocol: 96-well polystyrene cell culture plates were coated overnight at 4*C with 50 μL per well of phosphate buffered saline containing 3 μg/ml of recombinant proteins made of the entire extracellular domain of mouse E-selectin, P-selectin or VCAM-1/CD106 fused to the Fc fragment of human IgG1 (muEsel-IgG1Fc, muPsel-IgG1Fc, or muVCAM1-IgG1Fc respectively, from R&D Systems)) as previously described 8. Prior to the experiment, plates were flicked to remove excess coating solution and filled with Hepes buffered saline supplemented with 2% bovine serum albumin to block non-specific adhesion to plastic surfaces. […]
Bone marrow cells from CD44 KO, PSGL1 KO and CD44-PSGL1 double KO mice were stained with FITC-conjugated biotinylated rat monoclonal antibodies specific for CD3, CD5. […] Lineage-negative CD117-positive hematopoietic progenitor cells were then sorted by fluorescence activated cell sorting on an Aria cell sorter (BD Biosciences).
Sorted Lineage-negative CD117-positive hematopoietic progenitor cells when then washed and resuspended in cell adhesion buffer and labelled with the intracellular fluorescent dye calcein-AM (Molecular Probes) for 40 minutes at 37° C. […] The fluorescence contained in the remaining adherent cells was measured on a Fluorostar plate fluorometer following exciting at 488 nm using a 530 nm filter.

[2] = target: T2, recombinant human E-selectin extracellular domain fused with the Fc fragment of human IgM (human, UniProt P16581 22-556); experiment: flow cytometry: soluble selectin-IgMFc on bone marrow granulocytes of wild-type and knock-out mice
T2 construct: extracellular domain; Used as COS7 supernatant (pCDM8 plasmid); It was pre-complexed with Cy5-conjugated donkey anti-human IgM F(ab)'2 before the assay; also called E-selectin-IgMFc; selectin-IgMFc; not shown: Fc fragment of human IgM
T2 sequence (looked up): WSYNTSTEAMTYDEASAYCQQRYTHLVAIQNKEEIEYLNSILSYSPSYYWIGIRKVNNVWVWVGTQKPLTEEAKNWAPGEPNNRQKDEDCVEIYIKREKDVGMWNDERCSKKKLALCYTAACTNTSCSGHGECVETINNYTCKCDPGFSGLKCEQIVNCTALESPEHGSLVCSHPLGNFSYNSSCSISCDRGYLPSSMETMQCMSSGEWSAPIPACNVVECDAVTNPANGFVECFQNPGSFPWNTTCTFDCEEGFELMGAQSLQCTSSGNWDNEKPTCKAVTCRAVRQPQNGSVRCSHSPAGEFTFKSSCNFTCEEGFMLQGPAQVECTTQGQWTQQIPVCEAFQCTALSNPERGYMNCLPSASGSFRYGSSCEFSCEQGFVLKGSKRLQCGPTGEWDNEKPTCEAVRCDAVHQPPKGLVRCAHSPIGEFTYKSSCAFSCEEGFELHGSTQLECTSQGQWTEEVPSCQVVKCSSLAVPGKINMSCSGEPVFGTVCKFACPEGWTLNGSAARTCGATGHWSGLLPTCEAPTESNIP
Excerpt: In a second assay, binding of recombinant E-selectin and P-selectin was directly measured in solution by flow cytometry. For this purpose, recombinant human P-selectin or E-selectin extracellular domains fused with the Fc portion of human IgM were used as selectins required prior clustering to bind to their cellular receptors. As IgM are decameric proteins, each fusion recombinant protein is a decamer or either P-selectin or E-selectin. The clustering resulting from decamerization of selectin enables them to directly interact in solution with their cellular receptors. The inventors therefore measured the binding of recombinant selectin-IgM Fc fusion proteins to bone marrow cells isolated from wild-type, PSGL1−/−, CD44−/− or PSGL1−/−CD44−/− double KO mice. Detection by flow cytometry was performed by pre-complexing the selectin-IgMFc fusion proteins with a Cy5-conjubated donkey anti-human IgM antibody. […] Thus these experiments confirm that PSGL1 and CD44 are necessary and sufficient for E-selectin binding to mature granulocytes, hematopoietic stem cells can bind and adhere to E-selectin via alternative receptors which are not encoded by the PSGL1 and C44 genes.
Prior to the experiment, recombinant selectin-IgMFc fusion proteins were complexed with Cy5-conjugated donkey IgG F(ab)′2 fragments anti-human IgM. […]

B1: P-selectin glycoprotein ligand-1 (mouse, on bone marrow cells) (receptor, UniProt Q62170 42-397, looked up)
chain: QVVGDDDFEDPDYTYNTDPPELLKNVTNTVAAHPELPTTVVMLERDSTSAGTSERATEKIATTDPTAPGTGGTAVGMLSTDSATQWSLTSVETVQPASTEVETSQPAPMEAETSQPAPMEAETSQPAPMEAETSQPAPMEADTSQPAPMEAETSQPAPNEAETSKPAPTEAETSKPAPTEAETTQLPRIQAVKTLFTTSAATEVPSTEPTTMETASTESNESTIFLGPSVTHLPDSGLKKGLIVTPGNSPAPTLPGSSDLIPVKQCLLIILILASLATIFLVCTVVLAVRLSRKTHMYPVRNYSPTEMICISSLLPEGGDGAPVTANGGLPKVQDLKTEPSGDRDGDDLTLHSFLP
notes: whole, on cells; also called PSGL-1; PSGL1
B1: binds [1]; binds [2].
